From publication PMC7593955 (2020)

T1: adrenodoxin reductase (ADR) (Homo sapiens, UniProt P22570)
T1 chain: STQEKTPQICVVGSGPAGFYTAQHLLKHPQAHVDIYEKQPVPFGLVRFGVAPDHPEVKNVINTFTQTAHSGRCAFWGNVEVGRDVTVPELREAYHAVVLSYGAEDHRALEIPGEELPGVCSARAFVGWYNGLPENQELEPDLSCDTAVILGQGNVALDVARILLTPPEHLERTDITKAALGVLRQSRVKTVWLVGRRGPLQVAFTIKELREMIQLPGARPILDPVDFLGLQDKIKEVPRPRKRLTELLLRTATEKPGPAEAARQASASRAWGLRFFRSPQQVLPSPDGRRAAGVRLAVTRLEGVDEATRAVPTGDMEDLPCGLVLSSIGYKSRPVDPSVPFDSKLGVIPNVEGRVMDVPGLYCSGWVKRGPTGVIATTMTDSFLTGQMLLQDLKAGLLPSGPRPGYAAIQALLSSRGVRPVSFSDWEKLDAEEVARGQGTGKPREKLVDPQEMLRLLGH

B1: ferrochelatase (FECH) (protein)
chain: GAKPQVQPQKRKPKTGILMLNMGGPETLGDVHDFLLRLFLDRDLMTLPIQNKLAPFIAKRRTPKIQEQYRRIGGGSPIKIWTSKQGEGMVKLLDELSPNTAPHKYYIGFRYVHPLTEEAIEEMERDGLERAIAFTQYPQYSCSTTGSSLNAIYRYYNQVGRKPTMKWSTIDRWPTHHLLIQCFADHILKELDHFPLEKRSEVVILFSAHSLPMSVVNRGDPYPQEVSATVQKVMERLEYCNPYRLVWQSKVGPMPWLGPQTDESIKGLCERGRKNILLVPIAFTSDHIETLYELDIEYSQVLAKECGVENIRRAESLNGNPLFSKALADLVHSHIQSNELCSKQLTLSCPLCVNPVCRETKSFFTSQQL

Legend:
Test in all cases: SPR
[1] = target: Adrenodoxin reductase (Homo sapiens) (UniProt P22570); conditions: cited from earlier work
[2] = target: Adrenodoxin reductase (Homo sapiens) (UniProt P22570); conditions: cited from earlier work; remark: listed apart in the source
[3] = target: B1
[4] = target: T1, adrenodoxin reductase (ADR)
[5] = target: the molecule itself

| Kd [3] [nM] | Kd [4] [µM] | Molecule | Kd [1] [µM] | Kd [2] [nM] | Kd [5] [nM] |
| --- | --- | --- | --- | --- | --- |
| – | – | Ferrochelatase (from UniProt P22830) | 13 | 2000 | – |
| 560 | 13.7 | ferrochelatase (FECH) (protein, 100 uM 5-nitroisatin) GAKPQVQPQKRKPKTGILMLNMGGPETLGDVHDFLLRLFLDRDLMTLPIQNKLAPFIAKRRTPKIQEQYRRIGGGSPIKIWTSKQGEGMVKLLDELSPNTAPHKYYIGFRYVHPLTEEAIEEMERDGLERAIAFTQYPQYSCSTTGSSLNAIYRYYNQVGRKPTMKWSTIDRWPTHHLLIQCFADHILKELDHFPLEKRSEVVILFSAHSLPMSVVNRGDPYPQEVSATVQKVMERLEYCNPYRLVWQSKVGPMPWLGPQTDESIKGLCERGRKNILLVPIAFTSDHIETLYELDIEYSQVLAKECGVENIRRAESLNGNPLFSKALADLVHSHIQSNELCSKQLTLSCPLCVNPVCRETKSFFTSQQL | – | – | – |
| 610 | 13.8 | ferrochelatase (FECH) (protein, 100 uM 5-fluoroisatin) GAKPQVQPQKRKPKTGILMLNMGGPETLGDVHDFLLRLFLDRDLMTLPIQNKLAPFIAKRRTPKIQEQYRRIGGGSPIKIWTSKQGEGMVKLLDELSPNTAPHKYYIGFRYVHPLTEEAIEEMERDGLERAIAFTQYPQYSCSTTGSSLNAIYRYYNQVGRKPTMKWSTIDRWPTHHLLIQCFADHILKELDHFPLEKRSEVVILFSAHSLPMSVVNRGDPYPQEVSATVQKVMERLEYCNPYRLVWQSKVGPMPWLGPQTDESIKGLCERGRKNILLVPIAFTSDHIETLYELDIEYSQVLAKECGVENIRRAESLNGNPLFSKALADLVHSHIQSNELCSKQLTLSCPLCVNPVCRETKSFFTSQQL | – | – | – |
| 570 | 14.3 | ferrochelatase (FECH) (protein, 100 uM 5-methylisatin) GAKPQVQPQKRKPKTGILMLNMGGPETLGDVHDFLLRLFLDRDLMTLPIQNKLAPFIAKRRTPKIQEQYRRIGGGSPIKIWTSKQGEGMVKLLDELSPNTAPHKYYIGFRYVHPLTEEAIEEMERDGLERAIAFTQYPQYSCSTTGSSLNAIYRYYNQVGRKPTMKWSTIDRWPTHHLLIQCFADHILKELDHFPLEKRSEVVILFSAHSLPMSVVNRGDPYPQEVSATVQKVMERLEYCNPYRLVWQSKVGPMPWLGPQTDESIKGLCERGRKNILLVPIAFTSDHIETLYELDIEYSQVLAKECGVENIRRAESLNGNPLFSKALADLVHSHIQSNELCSKQLTLSCPLCVNPVCRETKSFFTSQQL | – | – | – |
| ~500 | – | ferrochelatase (FECH) (protein, NHS/EDC-treated immobilized FECH) GAKPQVQPQKRKPKTGILMLNMGGPETLGDVHDFLLRLFLDRDLMTLPIQNKLAPFIAKRRTPKIQEQYRRIGGGSPIKIWTSKQGEGMVKLLDELSPNTAPHKYYIGFRYVHPLTEEAIEEMERDGLERAIAFTQYPQYSCSTTGSSLNAIYRYYNQVGRKPTMKWSTIDRWPTHHLLIQCFADHILKELDHFPLEKRSEVVILFSAHSLPMSVVNRGDPYPQEVSATVQKVMERLEYCNPYRLVWQSKVGPMPWLGPQTDESIKGLCERGRKNILLVPIAFTSDHIETLYELDIEYSQVLAKECGVENIRRAESLNGNPLFSKALADLVHSHIQSNELCSKQLTLSCPLCVNPVCRETKSFFTSQQL | – | – | – |
| 530 | 15.5 | ferrochelatase (FECH) (protein, 100 uM 5-bromoisatin) GAKPQVQPQKRKPKTGILMLNMGGPETLGDVHDFLLRLFLDRDLMTLPIQNKLAPFIAKRRTPKIQEQYRRIGGGSPIKIWTSKQGEGMVKLLDELSPNTAPHKYYIGFRYVHPLTEEAIEEMERDGLERAIAFTQYPQYSCSTTGSSLNAIYRYYNQVGRKPTMKWSTIDRWPTHHLLIQCFADHILKELDHFPLEKRSEVVILFSAHSLPMSVVNRGDPYPQEVSATVQKVMERLEYCNPYRLVWQSKVGPMPWLGPQTDESIKGLCERGRKNILLVPIAFTSDHIETLYELDIEYSQVLAKECGVENIRRAESLNGNPLFSKALADLVHSHIQSNELCSKQLTLSCPLCVNPVCRETKSFFTSQQL | – | – | – |
| 540 | 14.1 | ferrochelatase (FECH) (protein, 100 uM 5-iodoisatin) GAKPQVQPQKRKPKTGILMLNMGGPETLGDVHDFLLRLFLDRDLMTLPIQNKLAPFIAKRRTPKIQEQYRRIGGGSPIKIWTSKQGEGMVKLLDELSPNTAPHKYYIGFRYVHPLTEEAIEEMERDGLERAIAFTQYPQYSCSTTGSSLNAIYRYYNQVGRKPTMKWSTIDRWPTHHLLIQCFADHILKELDHFPLEKRSEVVILFSAHSLPMSVVNRGDPYPQEVSATVQKVMERLEYCNPYRLVWQSKVGPMPWLGPQTDESIKGLCERGRKNILLVPIAFTSDHIETLYELDIEYSQVLAKECGVENIRRAESLNGNPLFSKALADLVHSHIQSNELCSKQLTLSCPLCVNPVCRETKSFFTSQQL | – | – | – |
| 580 | 14.7 | ferrochelatase (FECH) (protein, 100 uM 5,7-dichloroisatin) GAKPQVQPQKRKPKTGILMLNMGGPETLGDVHDFLLRLFLDRDLMTLPIQNKLAPFIAKRRTPKIQEQYRRIGGGSPIKIWTSKQGEGMVKLLDELSPNTAPHKYYIGFRYVHPLTEEAIEEMERDGLERAIAFTQYPQYSCSTTGSSLNAIYRYYNQVGRKPTMKWSTIDRWPTHHLLIQCFADHILKELDHFPLEKRSEVVILFSAHSLPMSVVNRGDPYPQEVSATVQKVMERLEYCNPYRLVWQSKVGPMPWLGPQTDESIKGLCERGRKNILLVPIAFTSDHIETLYELDIEYSQVLAKECGVENIRRAESLNGNPLFSKALADLVHSHIQSNELCSKQLTLSCPLCVNPVCRETKSFFTSQQL | – | – | – |
| – | 15.2 | B1 | – | – | 550 |
| 600 | 3.4 | ferrochelatase (FECH) (protein, 100 uM isatin) GAKPQVQPQKRKPKTGILMLNMGGPETLGDVHDFLLRLFLDRDLMTLPIQNKLAPFIAKRRTPKIQEQYRRIGGGSPIKIWTSKQGEGMVKLLDELSPNTAPHKYYIGFRYVHPLTEEAIEEMERDGLERAIAFTQYPQYSCSTTGSSLNAIYRYYNQVGRKPTMKWSTIDRWPTHHLLIQCFADHILKELDHFPLEKRSEVVILFSAHSLPMSVVNRGDPYPQEVSATVQKVMERLEYCNPYRLVWQSKVGPMPWLGPQTDESIKGLCERGRKNILLVPIAFTSDHIETLYELDIEYSQVLAKECGVENIRRAESLNGNPLFSKALADLVHSHIQSNELCSKQLTLSCPLCVNPVCRETKSFFTSQQL | – | – | – |
